According to patent US20190016778A1 (Xencor, published 2019):

Biological target: T1, human CD8 (captured on Octet biosensor) (human, UniProt P01732 22-182)
T1 construct: also called recombinant human CD8a
Assay: method not given; Octet (BLI) is the method of this example

Kd: 12 nM
B1: humanized OKT8 variant (H2L1) (antibody)
chain 1: QVQLVQSGAEVKKPGASVKVSCKASGFNIKDTYIHWVRQAPGKGLEWMGRIDPANDNTLYASKFQGRVTITADTSINTAYMELSRLRSDDTAVYYCGRGYGYYVFDHWGQGTTVTVSSASTKGPSVFPLAPSSKSTSGGTAALGCLVKDYFPEPVTVSWNSGALTSGVHTFPAVLQSSGLYSLSSVVTVPSSSLGTQTYICNVNHKPSNTKVDKKVEPKSCDKTHTCPPCPAPPVAGPSVFLFPPKPKDTLMISRTPEVTCVVVDVKHEDPEVKFNWYVDGVEVHNAKTKPREEQYNSTYRVVSVLTVLHQDWLNGKEYKCKVSNKALPAPIEKTISKAKGQPREPQVYTLPPSREQMTKNQVKLTCLVKGFYPSDIAVEWESNGQPENNYKTTPPVLDSDGSFFLYSKLTVDKSRWQQGNVFSCSVMHEALHNHYTQKSLSLSPGK
chain 2: DIKMTQSPSSLSASVGDRVTITCRTSRSISQYLAWYQEKPGKTNKLLIYSGSTLQSGIPSRFSGSGSGTDFTLTISSLQPEDFATYYCQQHNENPLTFGAGTKLEIKRTVAAPSVFIFPPSDEQLKSGTASVVCLLNNFYPREAKVQWKVDNALQSGNSQESVTEQDSKDSTYSLSSTLTLSKADYEKHKVYACEVTHQGLSSPVTKSFNRGEC
chain 3: EPKSSDKTHTCPPCPAPPVAGPSVFLFPPKPKDTLMISRTPEVTCVVVDVKHEDPEVKFNWYVDGVEVHNAKTKPREEEYNSTYRVVSVLTVLHQDWLNGKEYKCKVSNKALPAPIEKTISKAKGQPREPQVYTLPPSREEMTKNQVSLTCDVSGFYPSDIAVEWESDGQPENNYKTTPPVLDSDGSFFLYSKLTVDKSRWEQGDVFSCSVMHEALHNHYTQKSLSLSPGK
